In US20140087995A1 (published 2014):
Numbered stars: 1 amine (or outer) side, 2 acyl side, 3 side chain; on linkers, the order of the positions; unused ones are H or OH. Bridge positions count the residues as written; N and C are the ends. Side chains are listed from the residue outwards. Ends that are not written are not given here. * marks the point of attachment. C20 diacid = O=C(O)CCCCCCCCCCCCCCCCCCC(=O)*; γGlu = O=C(O)[C@H](CCC(=O)[*:2])N[*:1]

T1: human calcitonin receptor (human, UniProt P30988 25-474)
T1 sequence (looked up): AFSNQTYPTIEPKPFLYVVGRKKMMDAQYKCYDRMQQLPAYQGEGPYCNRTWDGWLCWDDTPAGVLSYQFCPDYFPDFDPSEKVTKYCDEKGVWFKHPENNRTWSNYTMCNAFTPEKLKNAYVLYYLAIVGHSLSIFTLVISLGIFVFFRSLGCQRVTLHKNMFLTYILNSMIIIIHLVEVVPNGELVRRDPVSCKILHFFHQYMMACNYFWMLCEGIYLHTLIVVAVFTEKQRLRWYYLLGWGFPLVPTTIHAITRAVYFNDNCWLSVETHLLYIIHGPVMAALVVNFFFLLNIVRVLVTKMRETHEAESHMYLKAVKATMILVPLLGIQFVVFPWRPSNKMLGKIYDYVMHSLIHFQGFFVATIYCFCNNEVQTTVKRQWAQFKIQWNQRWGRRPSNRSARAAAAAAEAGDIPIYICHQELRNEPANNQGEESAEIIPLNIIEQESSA

T2: rat calcitonin receptor (rat, UniProt P32214 25-516)
T2 construct: whole, on cells; Used as membranes prepared from the transfected cells (Assay VIII); also called rCTR; rat calcitonin (a) receptor
T2 sequence (looked up): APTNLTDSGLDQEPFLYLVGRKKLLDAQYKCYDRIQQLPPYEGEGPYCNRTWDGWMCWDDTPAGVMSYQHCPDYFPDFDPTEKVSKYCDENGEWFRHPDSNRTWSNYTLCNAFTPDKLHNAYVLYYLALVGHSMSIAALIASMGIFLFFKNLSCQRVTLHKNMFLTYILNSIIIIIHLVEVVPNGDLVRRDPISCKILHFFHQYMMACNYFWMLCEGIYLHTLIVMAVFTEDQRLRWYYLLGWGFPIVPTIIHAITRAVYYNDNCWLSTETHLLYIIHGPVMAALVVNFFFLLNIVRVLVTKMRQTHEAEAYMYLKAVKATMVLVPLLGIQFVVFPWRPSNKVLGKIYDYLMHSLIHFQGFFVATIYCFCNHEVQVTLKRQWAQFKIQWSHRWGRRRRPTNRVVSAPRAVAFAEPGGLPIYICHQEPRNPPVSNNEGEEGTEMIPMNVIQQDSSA

B1: N^-1-[(4S)-4-carboxy-4-(19-carboxynonadecanoylamino)butanoyl]-Gly[Arg1,His14,Arg17,Pro21,Pro27,His34]-h-amylin (peptide)
peptide: {C20 diacid-γGlu}-GRCNTATCATQRLAHFLRHSSPNFGAIPSSTNVGHNTY-NH2
modifications: disulfide 3-8
SMILES: CC[C@H](C)[C@H](NC(=O)[C@H](C)NC(=O)CNC(=O)[C@H](Cc1ccccc1)NC(=O)[C@H](CC(N)=O)NC(=O)[C@@H]1CCCN1C(=O)[C@H](CO)NC(=O)[C@H](CO)NC(=O)[C@H](Cc1c[nH]cn1)NC(=O)[C@H](CCCNC(=N)N)NC(=O)[C@H](CC(C)C)NC(=O)[C@H](Cc1ccccc1)NC(=O)[C@H](Cc1c[nH]cn1)NC(=O)[C@H](C)NC(=O)[C@H](CC(C)C)NC(=O)[C@H](CCCNC(=N)N)NC(=O)[C@H](CCC(N)=O)NC(=O)[C@@H](NC(=O)[C@H](C)NC(=O)[C@@H]1CSSC[C@H](NC(=O)[C@H](CCCNC(=N)N)NC(=O)CNC(=O)CC[C@H](NC(=O)CCCCCCCCCCCCCCCCCCC(=O)O)C(=O)O)C(=O)N[C@@H](CC(N)=O)C(=O)N[C@@H]([C@@H](C)O)C(=O)N[C@@H](C)C(=O)N[C@@H]([C@@H](C)O)C(=O)N1)[C@@H](C)O)C(=O)N1CCC[C@H]1C(=O)N[C@@H](CO)C(=O)N[C@@H](CO)C(=O)N[C@H](C(=O)N[C@@H](CC(N)=O)C(=O)N[C@H](C(=O)NCC(=O)N[C@@H](Cc1c[nH]cn1)C(=O)N[C@@H](CC(N)=O)C(=O)N[C@H](C(=O)N[C@@H](Cc1ccc(O)cc1)C(N)=O)[C@@H](C)O)C(C)C)[C@@H](C)O
notes: 38 residues; also called compound 100
B2: N^-1-[(4S)-4-carboxy-4-(19-carboxynonadecanoylamino)butanoyl]-Gly[Arg1,Ala14,Arg17,Pro21,Pro27,His34]-h-amylin (peptide)
peptide: {C20 diacid-γGlu}-GRCNTATCATQRLAAFLRHSSPNFGAIPSSTNVGHNTY-NH2
modifications: disulfide 3-8
SMILES: CC[C@H](C)[C@H](NC(=O)[C@H](C)NC(=O)CNC(=O)[C@H](Cc1ccccc1)NC(=O)[C@H](CC(N)=O)NC(=O)[C@@H]1CCCN1C(=O)[C@H](CO)NC(=O)[C@H](CO)NC(=O)[C@H](Cc1c[nH]cn1)NC(=O)[C@H](CCCNC(=N)N)NC(=O)[C@H](CC(C)C)NC(=O)[C@H](Cc1ccccc1)NC(=O)[C@H](C)NC(=O)[C@H](C)NC(=O)[C@H](CC(C)C)NC(=O)[C@H](CCCNC(=N)N)NC(=O)[C@H](CCC(N)=O)NC(=O)[C@@H](NC(=O)[C@H](C)NC(=O)[C@@H]1CSSC[C@H](NC(=O)[C@H](CCCNC(=N)N)NC(=O)CNC(=O)CC[C@H](NC(=O)CCCCCCCCCCCCCCCCCCC(=O)O)C(=O)O)C(=O)N[C@@H](CC(N)=O)C(=O)N[C@@H]([C@@H](C)O)C(=O)N[C@@H](C)C(=O)N[C@@H]([C@@H](C)O)C(=O)N1)[C@@H](C)O)C(=O)N1CCC[C@H]1C(=O)N[C@@H](CO)C(=O)N[C@@H](CO)C(=O)N[C@H](C(=O)N[C@@H](CC(N)=O)C(=O)N[C@H](C(=O)NCC(=O)N[C@@H](Cc1c[nH]cn1)C(=O)N[C@@H](CC(N)=O)C(=O)N[C@H](C(=O)N[C@@H](Cc1ccc(O)cc1)C(N)=O)[C@@H](C)O)C(C)C)[C@@H](C)O
notes: 38 residues
B3: N^ε1-[(4S)-4-carboxy-4-[[(4S)-4-carboxy-4-(19-carboxynonadecanoylamino)butanoyl]amino]butanoyl]-[His14,Arg17,Pro21,Pro27]-h-amylin (peptide)
peptide: K([γGlu-γGlu-C20 diacid])CNTATCATQRLAHFLRHSSPNFGAIPSSTNVGSNTY-NH2
modifications: disulfide 2-7; N-terminus assumed
SMILES: CC[C@H](C)[C@H](NC(=O)[C@H](C)NC(=O)CNC(=O)[C@H](Cc1ccccc1)NC(=O)[C@H](CC(N)=O)NC(=O)[C@@H]1CCCN1C(=O)[C@H](CO)NC(=O)[C@H](CO)NC(=O)[C@H](Cc1c[nH]cn1)NC(=O)[C@H](CCCNC(=N)N)NC(=O)[C@H](CC(C)C)NC(=O)[C@H](Cc1ccccc1)NC(=O)[C@H](Cc1c[nH]cn1)NC(=O)[C@H](C)NC(=O)[C@H](CC(C)C)NC(=O)[C@H](CCCNC(=N)N)NC(=O)[C@H](CCC(N)=O)NC(=O)[C@@H](NC(=O)[C@H](C)NC(=O)[C@@H]1CSSC[C@H](NC(=O)[C@@H](N)CCCCNC(=O)CC[C@H](NC(=O)CC[C@H](NC(=O)CCCCCCCCCCCCCCCCCCC(=O)O)C(=O)O)C(=O)O)C(=O)N[C@@H](CC(N)=O)C(=O)N[C@@H]([C@@H](C)O)C(=O)N[C@@H](C)C(=O)N[C@@H]([C@@H](C)O)C(=O)N1)[C@@H](C)O)C(=O)N1CCC[C@H]1C(=O)N[C@@H](CO)C(=O)N[C@@H](CO)C(=O)N[C@H](C(=O)N[C@@H](CC(N)=O)C(=O)N[C@H](C(=O)NCC(=O)N[C@@H](CO)C(=O)N[C@@H](CC(N)=O)C(=O)N[C@H](C(=O)N[C@@H](Cc1ccc(O)cc1)C(N)=O)[C@@H](C)O)C(C)C)[C@@H](C)O
notes: also called compound 92
B4: N^ε1-[(4S)-4-carboxy-4-[[(4S)-4-carboxy-4-(19-carboxynonadecanoylamino)butanoyl]amino]butanoyl]-[Ser14,Arg17,Pro21,Pro27,Pro34,Glu35]-h-amylin (peptide)
peptide: K([γGlu-γGlu-C20 diacid])CNTATCATQRLASFLRHSSPNFGAIPSSTNVGPETY-NH2
modifications: disulfide 2-7; N-terminus assumed
SMILES: CC[C@H](C)[C@H](NC(=O)[C@H](C)NC(=O)CNC(=O)[C@H](Cc1ccccc1)NC(=O)[C@H](CC(N)=O)NC(=O)[C@@H]1CCCN1C(=O)[C@H](CO)NC(=O)[C@H](CO)NC(=O)[C@H](Cc1c[nH]cn1)NC(=O)[C@H](CCCNC(=N)N)NC(=O)[C@H](CC(C)C)NC(=O)[C@H](Cc1ccccc1)NC(=O)[C@H](CO)NC(=O)[C@H](C)NC(=O)[C@H](CC(C)C)NC(=O)[C@H](CCCNC(=N)N)NC(=O)[C@H](CCC(N)=O)NC(=O)[C@@H](NC(=O)[C@H](C)NC(=O)[C@@H]1CSSC[C@H](NC(=O)[C@@H](N)CCCCNC(=O)CC[C@H](NC(=O)CC[C@H](NC(=O)CCCCCCCCCCCCCCCCCCC(=O)O)C(=O)O)C(=O)O)C(=O)N[C@@H](CC(N)=O)C(=O)N[C@@H]([C@@H](C)O)C(=O)N[C@@H](C)C(=O)N[C@@H]([C@@H](C)O)C(=O)N1)[C@@H](C)O)C(=O)N1CCC[C@H]1C(=O)N[C@@H](CO)C(=O)N[C@@H](CO)C(=O)N[C@H](C(=O)N[C@@H](CC(N)=O)C(=O)N[C@H](C(=O)NCC(=O)N1CCC[C@H]1C(=O)N[C@@H](CCC(=O)O)C(=O)N[C@H](C(=O)N[C@@H](Cc1ccc(O)cc1)C(N)=O)[C@@H](C)O)C(C)C)[C@@H](C)O
notes: also called compound 120

Experiments:
[1] = target: T1, human calcitonin receptor; experiment: cell-based or functional assay
rat calcitonin receptor = target: T2, rat calcitonin receptor; experiment: SPA competition binding, displacement of 125I-calcitonin from membranes of BHK tk'ts 13 cells transfected with rat calcitonin receptor (Assay VIII)

Binder | hCTR funct. EC50 (pM) [1] | IC50 (rat calcitonin receptor)
B1 | 1730 pM | –
B2 | 537 pM | –
B3 | 2380 pM | –
B4 | 887 pM | –
KCNTATCATQRLADFLRHSSPNFGAIPSSTNVGSRTY-NH2 (disulfide 2-7) [[Asp14,Arg17,Pro21,Pro27,Arg35]-h-amylin] | – | 30.9 nM
